# From patent US20130028925A1
# Target: HSV-2 glycoprotein E (gE2) as expressed by wild-type HSV-2 strain 2.12 (infected Cos cells; virion envelope) (Herpes Simplex Virus-2) (UniProt P89475)
# Test: rosetting of IgG-coated sheep red blood cells on Cos cells infected with HSV-2 at MOI 2, 12 h; uninfected cells and gE2-deletion virus formed none
# Sequence of UniProt P89475 (P89475 21-545 limits assumed): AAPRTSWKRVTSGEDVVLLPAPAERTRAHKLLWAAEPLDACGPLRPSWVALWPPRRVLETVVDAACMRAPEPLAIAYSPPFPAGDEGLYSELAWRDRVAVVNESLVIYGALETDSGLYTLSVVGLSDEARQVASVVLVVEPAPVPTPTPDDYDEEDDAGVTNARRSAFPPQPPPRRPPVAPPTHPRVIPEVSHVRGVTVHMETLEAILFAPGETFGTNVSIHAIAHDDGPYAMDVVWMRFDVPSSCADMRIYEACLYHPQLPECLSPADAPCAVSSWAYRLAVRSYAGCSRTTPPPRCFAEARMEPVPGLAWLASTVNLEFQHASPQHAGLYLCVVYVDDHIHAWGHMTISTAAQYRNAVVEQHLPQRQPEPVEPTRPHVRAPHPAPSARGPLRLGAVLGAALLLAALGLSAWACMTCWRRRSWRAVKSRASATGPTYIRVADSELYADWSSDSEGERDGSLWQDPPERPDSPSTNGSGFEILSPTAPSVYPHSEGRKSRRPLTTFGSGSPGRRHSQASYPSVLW
substance,measurement,value
rabbit anti-sheep IgG on sheep red blood cells (IgG-coated red blood cells) (antibody),percent of infected cells forming rosettes,36%
